The target of one test is T1, MAGI 3 PDZ2 (Homo sapiens, UniProt Q5TCQ9).
T1 sequence (Q5TCQ9 584-707 isoform Q5TCQ9-2): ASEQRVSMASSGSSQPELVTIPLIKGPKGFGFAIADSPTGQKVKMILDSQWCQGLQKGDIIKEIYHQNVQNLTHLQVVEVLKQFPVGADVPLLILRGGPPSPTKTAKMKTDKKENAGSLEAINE
Nature of the test: Biotinylated peptide pull-down of PDZ domains from HEK 293 cell extracts. In kind it is binding. Set-up: PDZ 2; aa; expressed in transfected cells; host or cells: HEK 293. As to conditions: GST fusion, FIG. 4, FIG. 8. Here is the method:
(§1) HEK 293 (293) cells grown in high glucose Dulbeco's Modified Eagle Medium (DMEM), 10% fetal calf serum, 1× non-essential amino acid supplement, 1×L-glutamine supplement, 10 mM HEPES (pH 7.4) and penicillin/streptomycin (all from Life Technologies) to ˜80% confluence were transfected with 2 μg DNA/35 mm diameter well (for example, DNAs encoding the sequences described in EXAMPLE 5.0) using Fugene reagent (Roche Biochemical). 24 hours post-transfection, cells were washed once with PBS and then scraped into 1 ml/well of 20 mM Tris (pH 7.5), 1% Triton X-100, 200 mM NaCl, 1 mM dithiothreitol, and protease inhibitor cocktail with EDTA (Roche Biochemical, catalog #1836145) and homogenized gently with three to five strokes in a dounce (Wheaton) using a loose glass pestle. Extracts were centrifuged at 12,000 rpm in a tabletop centrifuge at 4° C. for 10 minutes; the supernatant was combined with an equal volume of homogenization buffer without NaCl to achieve a final salt concentration of 100 mM and frozen at −70° C. until use. For peptide-pull-down experiments of MAGI-3 PDZ domains or the ERBIN PDZ domain, 100 μl of 293 cell extract was diluted to 400 μl in binding buffer (homogenization buffer modified to 100 mM NaCl) and incubated with 10 μM amino-terminally biotinylated peptide and 100 μl of strepavidin agarose (Sigma) for 2 hours on a rotator at 4° C. The beads were washed three times with 1 ml binding buffer and boiled in 60 μl of Laemmli's reducing sample buffer, of which 15 μl was loaded onto SDS-gels. PDZ domains co-precipitated with a given biotinylated peptide were visualized by immunoblot analysis using anti-GST (Genentech) or anti-GFP (Clontech) antibodies. […] Binding of 293 cell-expressed proteins was detected by immunoblot analysis using antibodies against GFP (Clontech) and Her 2 (Santa Cruz Biotechnology). […]

The next test concerns the target T2, MAGI-3 PDZ 3 (Homo sapiens, UniProt Q5TCQ9).
T2 construct: PDZ 3; aa; expressed in transfected cells; host or cells: HEK 293
T2 sequence (Q5TCQ9 741-840 isoform Q5TCQ9-2): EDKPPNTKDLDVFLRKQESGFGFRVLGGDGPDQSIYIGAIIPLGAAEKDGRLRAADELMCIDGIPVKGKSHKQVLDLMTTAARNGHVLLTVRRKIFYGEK
Described as above. Format: binding. As to conditions: GST fusion, FIG. 4. Here is the method:
as §1, with “use.” for “use. For peptide-pull-down experiments of MAGI-3 PDZ domains or the ERBIN PDZ domain, 100 μl of 293 cell extract was diluted to 400 μl in binding buffer (homogenization buffer modified to 100 mM NaCl) and incubated with 10 μM amino-terminally biotinylated peptide and 100 μl of strepavidin agarose (Sigma) for 2 hours on a rotator at 4° C. The beads were washed three times with 1 ml binding buffer and boiled in 60 μl of Laemmli's reducing sample buffer, of which 15 μl was loaded onto SDS-gels. PDZ domains co-precipitated with a given biotinylated peptide were visualized by immunoblot analysis using anti-GST (Genentech) or anti-GFP (Clontech) antibodies.”

The next test relates to Caco-2 cells. Nature of the test: Peptide targeting in live Caco-2 cells (fluorescein coupled peptides, confocal microscopy). Format: cell-based. Conditions: polarised Caco-2 monolayer, overnight incubation, 2 mM or 5 mM peptide; FIG. 5. The protocol: Caco-2 cells were grown on polycarbonate transwell filters (12 mm diameter, 0.4 μm pore size; Costar) in same media as HEK 293 cells) until a fully polarized monolayer was obtained as determined by resistance measurements. The live cells were then incubated overnight with amino terminally, fluorescein (FAM) coupled peptides: (A) 2 μM of ATQITWV (SEQ ID NO:214), (B) 2 μM ATQITWA (SEQ ID NO:215) or (C) 5 μM ASKITWV (SEQ ID NO:216) added into the media of the lower transwell chamber. The cells were then washed with Hanks Balanced Salt Solution (HBSS) with 1.8 mM CaCl2, fixed with ice cold methanol, permeabilized with 0.25% Triton X-100 in PBS, blocked with 5% donkey serum in PBS and stained with 1.5 μg monoclonal anti-γ-catenin antibody. The basolateral marker protein γ-catenin was visualized using Cy3-conjugated donkey anti-mouse antibodies (Jackson Immunolabs), diluted 1:1000. Processed filters were excised with a razor and mounted between a slide and coverslip with Vectashield mounting medium (Vector Labs; Burlingame, Calif.). Images were taken on a Leica confocal microscope using a 63X oil immersion objective.
Caco-2 cells were grown on polycarbonate transwell filters until a fully polarised monolayer was obtained. The live cells were then incubated overnight with the fluorescein (green) coupled peptides: (A) 2 mM of ATQITWV (SEQ ID NO:214), (B) 2 mM ATQITWA (SEQ ID NO:215) or (C) 5 mM ASKITW (SEQ ID NO:221) (FIG. 5). The cells were then fixed and counterstained with antibodies against the protein γ-catenin (FIG. 5). […] Substitution of A for V at the peptide carboxyl terminus should disrupt the interaction of a ligand with its cognate PDZ binding partner.

The target of test [1] is GST-MAGI-3 PDZ 2 (aa. 584-707 of SEQ ID NO:200) (human) [GST: P08515]. Description: competition ELISA: peptide blocks GST-PDZ binding to immobilized peptide. Background: An ELISA detects its analyte on a solid surface through an enzyme-linked reagent.
Test [2] shares this target. Nature of the test: competition ELISA.
For test [3], the target named is ERBIN PDZ-GST fusion protein (aa. 1217-1371 of SEQ ID NO:201) (human) [GST: P08515]. Nature of the test: competition ELISA: ERBIN PDZ-GST binding to immobilized biotin-PDZ 501.
In the next test the target is ERBIN PDZ domain (Homo sapiens, UniProt Q96RT1). Nature of the test: GST-PDZ co-precipitation of proteins from transfected HEK 293 cell extracts. In kind it is binding. Further details: made in house; host or cells: E. coli. As to conditions: extracts from transfected HEK 293 cells; FIG. 6. Here is the method: HEK 293 (293) cells grown in high glucose Dulbeco's Modified Eagle Medium (DMEM), 10% fetal calf serum, 1× non-essential amino acid supplement, 1×L-glutamine supplement, 10 mM HEPES (pH 7.4) and penicillin/streptomycin (all from Life Technologies) to ˜80% confluence were transfected with 2 μg DNA/35 mm diameter well (for example, DNAs encoding the sequences described in EXAMPLE 5.0) using Fugene reagent (Roche Biochemical). 24 hours post-transfection, cells were washed once with PBS and then scraped into 1 ml/well of 20 mM Tris (pH 7.5), 1% Triton X-100, 200 mM NaCl, 1 mM dithiothreitol, and protease inhibitor cocktail with EDTA (Roche Biochemical, catalog #1836145) and homogenized gently with three to five strokes in a dounce (Wheaton) using a loose glass pestle. Extracts were centrifuged at 12,000 rpm in a tabletop centrifuge at 4° C. for 10 minutes; the supernatant was combined with an equal volume of homogenization buffer without NaCl to achieve a final salt concentration of 100 mM and frozen at −70° C. until use. […] Binding of 293 cell-expressed proteins was detected by immunoblot analysis using antibodies against GFP (Clontech) and Her 2 (Santa Cruz Biotechnology).
Amino acids 1217-1371 of ERBIN and 584-707 corresponding to PDZ 2 of MAGI-3 (Sidhu et al., 2000); were expressed in E. coli as GST fusions. […] Equal volumes of extract and depleted extract (sup.) were analyzed.

The target of test [4] is GST-MAGI-3 PDZ 3 (aa. 741-840 of SEQ ID NO:200) (human) [GST: P08515]. Nature of the test: competition ELISA: peptide blocks GST-PDZ binding to immobilized peptide.
For test [5] the target is unchanged. Description: competition ELISA.
Test [6] has as its target T3, GST-MAGI-3 PDZ 2 (aa. 584-707 of SEQ ID NO:200) (human, UniProt P08515 1-218 = GST). Description: competition ELISA.
Test [7] concerns the target T3, GST-MAGI-3 PDZ 2 (aa. 584-707 of SEQ ID …). Nature of the test: competition ELISA: peptide blocks GST-PDZ binding to immobilized peptide.

In general, IC50 refers to the midpoint of a concentration-inhibition curve. A lower IC50 goes with greater potency in that assay.

A value given as a limit tells only on which side of the number the result lay.

T3 sequence (P08515 whole entry): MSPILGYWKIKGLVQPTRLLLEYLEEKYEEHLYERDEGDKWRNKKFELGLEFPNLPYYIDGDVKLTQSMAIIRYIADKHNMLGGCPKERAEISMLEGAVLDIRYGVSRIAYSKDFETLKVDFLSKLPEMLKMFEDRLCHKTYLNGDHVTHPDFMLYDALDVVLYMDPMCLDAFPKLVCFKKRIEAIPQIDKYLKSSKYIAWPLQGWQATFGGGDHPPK
Chain of GST-MAGI-3 PDZ 2 (aa. 584-707 of SEQ ID NO:200) (human) [GST: P08515] (P08515 whole entry): as above
Chain of GST-MAGI-3 PDZ 3 (aa. 741-840 of SEQ ID NO:200) (human) [GST: P08515] (P08515 whole entry): as above
Chain of ERBIN PDZ-GST fusion protein (aa. 1217-1371 of SEQ ID NO:201) (human) [GST: P08515] (P08515 whole entry, the tested form may be a part): as the sequence (P08515 whole entry) above
Chain of ERBIN PDZ domain (Q96RT1 1258-1412): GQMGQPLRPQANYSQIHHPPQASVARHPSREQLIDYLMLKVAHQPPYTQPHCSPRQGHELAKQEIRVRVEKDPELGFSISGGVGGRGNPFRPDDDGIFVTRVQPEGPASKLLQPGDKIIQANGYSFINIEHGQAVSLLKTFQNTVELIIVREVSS

For “ATQITKV [biotinylated peptide with W to K change at the (−1) position, reference compound]”, the “precipitation of MAGI-3 PDZ 2 from cell extracts by biotinylated peptide” value with MAGI 3 PDZ2 is “did not bind”. For the same molecule, the “precipitation of MAGI-3 PDZ 3 from cell extracts by biotinylated peptide” value in the test with MAGI-3 PDZ 3 is “did not bind”.
Turning to “ATQITWA [V to A change at the (0) position; used biotinylated or fluorescein coupled]”, the “precipitation of MAGI-3 PDZ 2 from cell extracts by biotinylated peptide” value in the test with MAGI 3 PDZ2 is “did not bind”. The “precipitation of MAGI-3 PDZ 3 from cell extracts by biotinylated peptide” value with MAGI-3 PDZ 3 is recorded as “did not bind”. In addition, in the test on Caco-2 cells, the “localization of fluorescein coupled peptide in live cells” value is reported as “does not target to the tight junction”.
As for “ATQITWV [derivative of the C-terminus of PTEN, K to W at (−1); used biotinylated or fluorescein coupled]”, in the test with MAGI 3 PDZ2, the “precipitation of MAGI-3 PDZ 2 from cell extracts by biotinylated peptide” value is “efficiently precipitate only the PDZ domain that they were phage-selected against”. In addition, the “localization of fluorescein coupled peptide in live cells” value with Caco-2 cells is listed as “localize apically on the lateral membrane to the tight junction”.
On to CSWV (peptide), for which the IC50 amounted to 1400 nM in [1] and 1000 nM in test [2].
For the molecule DVPV (peptide), the concentration for half-maximal inhibition (IC50) in test [3] was > 400 µM.
In the case of “Her 2: Her 2 receptor, a previously reported ligand for the ERBIN PDZ”, the “binding to / precipitation by GST-ERBIN PDZ” value with ERBIN PDZ domain was “specifically precipitated”.
Regarding TRWWFDI (peptide), the IC50 in test [4] worked out at 0.9 µM.
Molecule TRWWFDI-NH2 (peptide) gave an IC50 in test [4] of 300 µM. The same molecule came in with a fold reduction in binding affinity against the unamidated peptide in test [5] of 300 fold.
For VTWV (peptide), the IC50 in test [1] and in test [2] was 4000 nM in each case.

B1: ITKV (peptide)
peptide: ITKV
notes: also called MAGI 3 PDZ2 domain "naturally-selected" ligand
In test [6], B1 came in with an IC50 of 200 µM.
For the molecule DGICSWV (synthetic peptide), the IC50 in test [7] came out at 300 nM.
Turning to ASKVTWV (synthetic peptide), in [7], the IC50 came to 800 nM.
